Assay results taken from the RNAGym collection of RNA variant scans (doi:10.1073/pnas.2313332121).
Fewer inactive variants are shown than the library holds.

B1: TPR 5TU (parent)
chain: GGAUCUUCUCGAUCUAACAAAAAAGACAAAUCUGCCACAAAGCUUGAGAGCAUCUUCGGAUGCAGAGGCGGCAGCCUUCGGUGGCGCGAUAGCGCCAACGUUCUCAACUAUGACACGCAAAACGCGUGCUCCGUUGAAUGGAGUUUAUCAUG

Variants of: B1
Assay: polymerase ribozyme fitness, log enrichment relative to wild type (log ratio); higher = more active; in vitro selection for triplet polymerase activity
Outline: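 The heterodimeric triplet polymerase ribozyme's subunits were each mutagenized into PCR-built libraries and transcribed. Every library was selected once, in triplicate, by annealing with a biotinylated primer, the partner subunit and triplets, incubating frozen at −7 °C, gel-excising extended constructs, capturing on streptavidin beads and running RT-PCR. Input and output libraries were Illumina-sequenced, with genotypes kept only at ≥10 input reads and ≥1 read per output. Fitness, from inverse-variance-weighted replicate averages, is the base-2 logarithm of genotype enrichment over wild-type enrichment.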

Variant	polymerase ribozyme fitness (log ratio)
A41C U56A C63A G83A	-0.629
A12U A91G	-2.26
G81A A89C	-0.165
C54U A64U G83A C85A	≤ -4.2
A22G G83C A98U C114U	-3.19
U6C A89G C96U U135C G140U	≤ -4.2
A106C	-0.467
G68A A138G	≤ -4.2
C14G C18U G92C	-2.89
A29U	-3.4
A3U A20C G58C A73U G81A A147C	≤ -4.2
U55G G92U U139G U146G	-1.4
A20C C76U C85U C95U C96U	-3.03
C14U A115G	-2.56
A3C U4G A49U U61C G70A G92U	≤ -4.2
A23G U130C A138U	-4.2
G25C C35U G74C C75A U148G	≤ -4.2
C96G A98G G124A	-1.82
C27A A28G A40C A47C A73C U77C C99G	≤ -4.2
A19G A23G G67C C87U	≤ -4.2
A16C A20U	-2.36

Variant	polymerase ribozyme fitness (log ratio)
U6A C27U A41C U55A G62C G71C C85A G143U	≤ -4.2
C14G C38U G68U G80U A91G C103A U139C	≤ -4.2
C85A A120U	-1.7
U4A C51U G94C A98U	-1.63
G59C A89U G92C A121G	-2.45
U61G G94A A106C C116A G133C U146A	≤ -4.2
A29G A30C G59C U90G C95G G133U	≤ -4.2
C35U G136A G143U	-3.68
C51U C85G A115C	-1.9
A60G U61G G81C A122C A142U	-3.02
U4G A89C C131A	-3.28
G67A A91G U135G C149U	≤ -4.2
A41U G83U U90G C93G A106U	≤ -4.2
A49U A97U A106G C116U	-2.93
C57U U61A G81C A107U	≤ -4.2
C43U A138C	≤ -4.2
A37C A49C G59C G83C C95A A122U G143U A150G	≤ -4.2
U56A A66C C72U G92A C93U C95A C116A	≤ -4.2
A64G G67U G84U C103A G112C A115U U146C	≤ -4.2
G50C C87G C114A A115G	≤ -4.2
C93G C108G A142C C149U U151G	≤ -4.2

Variant	polymerase ribozyme fitness (log ratio)
A30G A121G	-3.36
G34A A41G A120U	-1.2
C36A A73U G92U U134G G143U	-4.13
A22C U55A A97G G143C	-3.02
U6C U13C C14U G34A G80C A91G	≤ -4.2
U45G G59C C99A U151G	≤ -4.2
C5U A20C C43G C76G C108G C114U A120U U146G	≤ -4.2
C32U G71C C103G A113G A121G U134C	≤ -4.2
C38G U56G C72A A91U A107C G117A U148A	≤ -4.2
A20U C72U C85A U134C A150C	≤ -4.2
C79U C85G U101G	≤ -4.2
A40G A91G A115G C116G A142C	≤ -4.2
C72U C87A A98U A138C	≤ -4.2
A26U A49C U111G	≤ -4.2
U6G A19U G50C G88U C99G	≤ -4.2
G48A U55A C57G A66U G83C U90A C108U G124U	≤ -4.2
A22U C99U	-0.0944
A16U C96U	-2.07
A21G A37U	-0.976
G42A A52C C54A U56C G94C	≤ -4.2
G71A A91U C95G A119U A121G C129A A147G	≤ -4.2

Variant	polymerase ribozyme fitness (log ratio)
A47C G83A C99U A120U	-3.03
C10G A41U	-4.05
G58C C87U A115G C116G A121U G136U	-4.12
G59U A91U G141A	≤ -4.2
A24U A28U U33A A41C U55G C96U	≤ -4.2
C18G A39G A40U G67A U90C A97G C99U	≤ -4.2
G58A C87U C108U A142C	-3.89
G80A C85A	-0.619
G84A C118U G141A	0.213
C35G C87U C118U	-4.18
U55G U134C G143U	-1.98
C18G C36G U78A C85A	≤ -4.2
U15C A47C C54U A89U C95G	-2.01
C35G C57U C85G U151A	≤ -4.2
G84U A106C	-2.1
A23C U55A U82C G136U	≤ -4.2
A21C A41U G71A A98U G136U A147U U148C	≤ -4.2
C76U A89G	-1.03
U56A G92A U148G	≤ -4.2
U44A C85A G92A A107U G128U	≤ -4.2
